# Data published in publication PMC10350915, “Development of a New Class of CXCR4-Targeting Radioligands Based on the Endogenous Antagonist EPI-X4 for Oncological Applications” (Journal of Medicinal Chemistry, 2023).
# Read-outs that look alike come from different tables or passages of the source. Square brackets hold non-standard residues; d marks the D form. Side chains are listed from the residue outwards. Ends that are not written are not given here. Peptide text beside a SMILES is read from it. * marks the point of attachment. DOTA = O=C(O)CN1CCN(CC(=O)O)CCN(CC(=O)*)CCN(CC(=O)O)CC1; Palmitoyl = CCCCCCCCCCCCCCCC(=O)*
# T1: C-X-C motif chemokine receptor 4 (CXCR4) on Jurkat cells (human (endogenous in Jurkat), UniProt P61073 1-352)
# T1 chain: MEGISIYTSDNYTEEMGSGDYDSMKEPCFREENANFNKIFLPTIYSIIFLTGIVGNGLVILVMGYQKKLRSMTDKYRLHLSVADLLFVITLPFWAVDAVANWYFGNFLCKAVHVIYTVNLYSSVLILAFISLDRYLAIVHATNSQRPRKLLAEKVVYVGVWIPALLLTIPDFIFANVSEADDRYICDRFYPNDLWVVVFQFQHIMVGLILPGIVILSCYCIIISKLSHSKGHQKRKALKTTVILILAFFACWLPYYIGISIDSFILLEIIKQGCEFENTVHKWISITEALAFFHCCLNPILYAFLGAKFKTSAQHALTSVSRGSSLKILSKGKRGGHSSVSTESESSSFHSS
# B1: ligand-4 (peptide)
# peptide: ILRWSRKK(DOTA)-NH2
# notes: truncated JM#21 derivative with added C-terminal K(DOTA)-NH2; source: synthetic peptide (Fmoc solid phase synthesis, RP-HPLC purified)
# B2: ^natLu-9 (peptide)
# peptide: [dL]LRWSRK([Glu-Palmitoyl])K(DOTA)-NH2
# modifications: also: natLu complexed by DOTA
# notes: natLu and 177Lu complexes are written as one molecule; they differ only in the isotope; also called ^177Lu-9; Lu complex of ligand-9; source: synthetic peptide, complexed with natLuCl3; ^177Lu form labelled with 177LuCl3
# B3: ligand-9 (peptide)
# peptide: [dL]LRWSRK([Glu-Palmitoyl])K(DOTA)-NH2
# notes: main chain of 8 residues; source: synthetic peptide (Fmoc solid phase synthesis, RP-HPLC purified)
# B4: ligand-5 (peptide)
# peptide: ILRWSRK(DOTA)-NH2
# modifications: N-terminus assumed
# SMILES: CC[C@H](C)[C@H](N)C(=O)N[C@@H](CC(C)C)C(=O)N[C@@H](CCCNC(=N)N)C(=O)N[C@@H](Cc1c[nH]c2ccccc12)C(=O)N[C@@H](CO)C(=O)N[C@@H](CCCNC(=N)N)C(=O)N[C@@H](CCCCNC(=O)CN1CCN(CC(=O)O)CCN(CC(=O)O)CCN(CC(=O)O)CC1)C(N)=O
# notes: shortest truncated JM#21 derivative; DOTA on its own K7; source: synthetic peptide (Fmoc solid phase synthesis, RP-HPLC purified)
# B5: ^natLu-5 (peptide)
# peptide: ILRWSRK(DOTA)-NH2
# modifications: also: natLu complexed by DOTA
# notes: natLu and 177Lu complexes are written as one molecule; they differ only in the isotope; also called ^177Lu-5; Lu complex of ligand-5; source: synthetic peptide, complexed with natLuCl3; ^177Lu form labelled with 177LuCl3
# B6: EPI-X4 (endogenous peptide inhibitor of CXCR4) (peptide)
# peptide: LVRYTKKVPQVSTPTL
# notes: 16-mer fragment of human serum albumin; also called wild-type EPI-X4; source: synthetic peptide
# B7: ligand-7 (peptide)
# peptide: [dI]LRWSRKK(DOTA)-NH2
# modifications: N-terminus assumed
# SMILES: CC[C@@H](C)[C@@H](N)C(=O)N[C@@H](CC(C)C)C(=O)N[C@@H](CCCNC(=N)N)C(=O)N[C@@H](Cc1c[nH]c2ccccc12)C(=O)N[C@@H](CO)C(=O)N[C@@H](CCCNC(=N)N)C(=O)N[C@@H](CCCCN)C(=O)N[C@@H](CCCCNC(=O)CN1CCN(CC(=O)O)CCN(CC(=O)O)CCN(CC(=O)O)CC1)C(N)=O
# notes: as ligand-4 with isoleucine 1 substituted by D-isoleucine; also called DOTA conjugate of JM#173; source: synthetic peptide (Fmoc solid phase synthesis, RP-HPLC purified)
# B8: EPI-X4 JM#21 (peptide)
# peptide: ILRWSRKLPCVS
# notes: activity-optimised, truncated 12-mer derivative of EPI-X4 (rational design); source: synthetic peptide
# B9: ^natLu-1 (peptide)
# peptide: ILRWSRKLPCVSK(DOTA)
# modifications: also: natLu complexed by DOTA
# notes: natLu and 177Lu complexes are written as one molecule; they differ only in the isotope; also called ^177Lu-1; Lu complex of ligand-1 (monomer); source: synthetic peptide, complexed with natLuCl3, monomer isolated by semipreparative RP-HPLC; ^177Lu form labelled with 177LuCl3 in the presence of DTT
# B10: ligand-1 (peptide)
# peptide: ILRWSRKLPCVSK(DOTA)
# notes: source: synthetic peptide (Fmoc solid phase synthesis, RP-HPLC purified)
# B11: ^natLu-6 (peptide)
# peptide: [dL]LRWSRKLPCVSK(DOTA)
# modifications: also: DOTA complexed with natLu
# notes: natLu and 177Lu complexes are written as one molecule; they differ only in the isotope; also called ^177Lu-6; Lu complex of ligand-6 (monomer); source: synthetic peptide, complexed with natLuCl3, monomer isolated by semipreparative RP-HPLC; ^177Lu form labelled with 177LuCl3 in the presence of DTT
# B12: ligand-2 (peptide)
# peptide: ILRWSRKLPSVSK(DOTA)
# notes: as ligand-1 with serine instead of cysteine at position 10; source: synthetic peptide (Fmoc solid phase synthesis, RP-HPLC purified)
# B13: ^natLu-2 (peptide)
# peptide: ILRWSRKLPSVSK(DOTA)
# modifications: also: natLu complexed by DOTA
# notes: natLu and 177Lu complexes are written as one molecule; they differ only in the isotope; also called ^177Lu-2; Lu complex of ligand-2; source: synthetic peptide, complexed with natLuCl3; ^177Lu form labelled with 177LuCl3
# B14: ligand-6 (peptide)
# peptide: [dL]LRWSRKLPCVSK(DOTA)
# notes: as ligand-1 with isoleucine 1 substituted by D-leucine; source: synthetic peptide (Fmoc solid phase synthesis, RP-HPLC purified)
# B15: ligand-3 (peptide)
# peptide: ILRWSRKLPK(DOTA)-NH2
# modifications: N-terminus assumed
# SMILES: CC[C@H](C)[C@H](N)C(=O)N[C@@H](CC(C)C)C(=O)N[C@@H](CCCNC(=N)N)C(=O)N[C@@H](Cc1c[nH]c2ccccc12)C(=O)N[C@@H](CO)C(=O)N[C@@H](CCCNC(=N)N)C(=O)N[C@@H](CCCCN)C(=O)N[C@@H](CC(C)C)C(=O)N1CCC[C@H]1C(=O)N[C@@H](CCCCNC(=O)CN1CCN(CC(=O)O)CCN(CC(=O)O)CCN(CC(=O)O)CC1)C(N)=O
# notes: as for B1
# B16: ^natLu-7 (peptide)
# peptide: [dI]LRWSRKK(DOTA)-NH2
# modifications: also: natLu complexed by DOTA
# notes: natLu and 177Lu complexes are written as one molecule; they differ only in the isotope; also called ^177Lu-7; Lu complex of ligand-7; source: synthetic peptide, complexed with natLuCl3; ^177Lu form labelled with 177LuCl3
# Legend:
# [1] = type: in vitro ADME; details: human; for plasma protein binding (PPB): 60 min; for fraction unbound at 60 min: plasma, plasma protein binding (PPB)
# Protocol: (§1) Figure 3 Stability of the ^177Lu ligands in human plasma at 37 °C, expressed as % of intact radioligand over time, assessed by radio-HPLC. The % of plasma protein binding (PPB) after 60 min incubation is provided in parenthesis and it is expressed as the % of radioligand in the protein fraction (pellet) versus the total activity in the plasma. TEXT PRINTED IN THE PICTURE: ^177Lu-1: PPB: 35% | ^177Lu-2: PPB: 22% | ^177Lu-5: PPB: 42% | ^177Lu-6: PPB: 38% | ^177Lu-7: PPB: 39% | ^177Lu-9: PPB: 37%
# For the determination of plasma protein binding (PPB), 100 μL from the plasma incubated with the ^177Lu ligand was removed and measured in a γ-counter (total radioactivity). Protein precipitation and separation followed, as described above. The supernatant and the protein pellet were then measured in a γ-counter. The percentage of plasma protein binding was calculated as the ratio between the protein-bound radioactivity and the total radioactivity in the plasma.
# [2] = type: in vitro ADME, human
# Protocol: Representative radiochromatograms are provided in Figure S25 for ^177Lu-1, ^177Lu-2, and ^177Lu-7. This included ^177Lu-9 despite its fatty acid chain.
# as §1
# To 1 mL of fresh human plasma, previously equilibrated at 37 °C, 500 pmol (8–10 MBq) of each ^177Lu-labeled ligand was added. The mixture was incubated at 37 °C for different time points (0, 15, 30, 60, and 120 min). At each time point, a 100 μL aliquot was removed and treated with 1.5 excess (v/v) of acetonitrile, to precipitate plasma proteins, followed by centrifugation for 5 min at 3500 rpm. The supernatant was collected and the process of protein precipitation was repeated. Afterward, 100 μL from the supernatant was taken, diluted with water at a ratio of 1:10 (v/v), and injected into radio-HPLC. The radioligand (in)stability was assessed by quantifying the percentage of intact radioligand over time.
# [3] = target: T2, C-X-C motif chemokine receptor 4 (CXCR4) on Jurkat cells (human (endogenous in Jurkat), UniProt P61073 1-352); assay: flow cytometry on cells; competition with APC-labelled anti-CXCR4 antibody clone 12G5 at a fixed concentration close to its KD; Jurkat cells, 50,000 cells/well; ligands serially diluted in PBS; 4 °C, 2 h; PBS with 1% FBS; details: one partner purified
# T2 construct: CXCR4 naturally expressed at high levels on Jurkat cells (human T lymphoblasts); source: endogenous, on Jurkat cells (clone E6-1, ATCC)
# [4] = target: T3, C-X-C motif chemokine receptor 4 (CXCR4) on Ghost-CXCR4 cells (UniProt P61073 1-352); assay: flow cytometry on cells; competition with APC-labelled anti-CXCR4 antibody clone 12G5 at a fixed concentration close to its KD; Ghost-CXCR4 cells, 50,000 cells/well; ligands serially diluted in PBS; 4 °C, 2 h; PBS with 1% FBS; details: one partner purified
# T3 construct: CXCR4 stably expressed in Ghost cells (NIH HIV Reagent Program); source: Ghost cells (human osteosarcoma cell line) stably transfected with CXCR4, also expressing CD4; on cells
# [5] = target: T1, C-X-C motif chemokine receptor 4 …
# [6] = target: T3, C-X-C motif chemokine receptor 4 …; assay: radioligand binding; cellular uptake (surface-bound and internalised) of 177Lu ligands (1 nM) in Ghost-CXCR4 cells, 37 °C, 15-60 min, DMEM with 5% BSA; nonspecific uptake with 100,000-fold excess of AMD3100 subtracted; details: one partner purified
Molecule,plasma protein binding (PPB) [1] [%],fraction unbound at 60 min [1],time to complete degradation in human plasma [2] [min],IC50 [3] [nM],IC50 [4] [nM],IC50 [5] [nM],cellular uptake (% of applied activity) [6]
"CC(C)C[C@@H](N)C(=O)N[C@@H](CC(C)C)C(=O)N[C@@H](CCCNC(=N)N)C(=O)N[C@@H](Cc1c[nH]c2ccccc12)C(=O)N[C@@H](CO)C(=O)N[C@@H](CCCNC(=N)N)C(=O)N[C@@H](CCCCN)C(=O)N[C@@H](CC(C)C)C(=O)N1CCC[C@H]1C(=O)N[C@@H](CS)C(=O)N[C@H](C(=O)N[C@@H](CO)C(=O)N[C@@H](CCCCNC(=O)CN1CCN(CC(=O)O)CCN(CC(=O)O)CCN(CC(=O)O)CC1)C(=O)O)C(C)C [^177Lu-6, metal not drawn]",~40,0.62,≤ 15,,,,
"CC[C@H](C)[C@H](N)C(=O)N[C@@H](CC(C)C)C(=O)N[C@@H](CCCNC(=N)N)C(=O)N[C@@H](Cc1c[nH]c2ccccc12)C(=O)N[C@@H](CO)C(=O)N[C@@H](CCCNC(=N)N)C(=O)N[C@@H](CCCCN)C(=O)N[C@@H](CC(C)C)C(=O)N1CCC[C@H]1C(=O)N[C@@H](CS)C(=O)N[C@H](C(=O)N[C@@H](CO)C(=O)N[C@@H](CCCCNC(=O)CN1CCN(CC(=O)O)CCN(CC(=O)O)CCN(CC(=O)O)CC1)C(=O)O)C(C)C [^177Lu-1, metal not drawn]",,0.65,≤ 15,,,,
"CC[C@H](C)[C@H](N)C(=O)N[C@@H](CC(C)C)C(=O)N[C@@H](CCCNC(=N)N)C(=O)N[C@@H](Cc1c[nH]c2ccccc12)C(=O)N[C@@H](CO)C(=O)N[C@@H](CCCNC(=N)N)C(=O)N[C@@H](CCCCNC(=O)CN1CCN(CC(=O)O)CCN(CC(=O)O)CCN(CC(=O)O)CC1)C(N)=O [^177Lu-5, metal not drawn] (H-ILRWSRK(DOTA)-NH2; N-terminus assumed)",~40,0.58,≤ 15,,,,
B1,,,,161,295,,
B2,,,,4,6,20,
B3,,,,13,6,,
B4,,,,120,424,,
B5,,,,113,197,104,~1 % of applied activity
B6,,,,1780,4540,,
B7,,,,433,570,,
B8,,,,136,183,,
B9,,,,208,278,15,~1 % of applied activity
B10,,,,303,254,,
B11,,,,465,1010,,~1 % of applied activity
B12,,,,172,258,,
B13,,,,49,,65,~1 % of applied activity
B14,,,,428,747,,
B15,,,,45,98,,
B16,,,,435,481,272,
IVRWSKK(Palmitoyl)VPCSK(DOTA) (also: natLu complexed by DOTA) [^natLu-8],,,,18,30,,
